Test results from the supplement of paper PMC12042874.
± gives the uncertainty stated by the source.

experiment: amyloid nucleation score (Sup35N fusion, yeast selection) (log enrichment); library NNK2; higher = more nucleation; inactive = no reads after selection
Procedure, shortened: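 For the nucleation score, DiMSum gave the log enrichment of output over input reads, centred on the mode score of non-aggregating sequences. Psi-negative yeast expressing Sup35N fused to peptides of 20 random codons were induced with 100 μM copper sulfate for 24 hours and grown 7 days at 30°C on medium lacking adenine and uracil. Input and output plasmid inserts were Illumina-sequenced, and sequences with under 100 input reads were excluded.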

Substance	amyloid nucleation score
MSKEVVSSGYVIHIRRQRGG	0.82 ± 0.57
MSKGVYIYNIYYLVMSGVPL	4.9 ± 0.063
MSLCGYNYI	inactive
MSLVSRNSTSKHLNIVFSLI	5.057 ± 0.045
MSMLNRALGILKSTFMINRR	-0.058 ± 0.53
MSNARRFSMNDSYNIVLCWE	-0.111 ± 0.63
MSPVCLCCYLPTRVYCKVSG	5.85 ± 0.084
MSRSVVESQMVLSDDFWHQG	-0.41 ± 0.22
MSRWKVHFTMRTSPCIVNEH	1.17 ± 0.45
MSRWTKIGNFDNIPSIPLVV	-0.228 ± 0.36
MSSCLRL	4.51 ± 0.056
MSSSVHLGIFITQCVKTRQL	2.25 ± 0.22
MSSYDF	inactive
MSTMINSPPSSG	inactive
MSVTWYLGNWVTVL	-1.09 ± 0.79
MSVVVLWHGLCLQLYMCDA	-0.23 ± 0.65
MSWVVIQFTINIFRHKTF	3.47 ± 0.11
MTIHVSTELAALSSGL	1.11 ± 0.17
MTLVRFSRIGALKLCLQKES	-0.337 ± 0.39
MTYRSLPEYTDLLWVTYVER	0.369 ± 0.46
MVANG	0.317 ± 0.62
MVCLLSFPHPCGINLMVARN	-0.147 ± 0.37

Substance	amyloid nucleation score
MVCRFGILSYVMWRF	0.83 ± 0.45
MVDTTRSTCISNSISWCAID	5.28 ± 0.062
MVGVVWSMTRFCGQHHTILG	0.531 ± 0.81
MVNGEVTLGAVCNTYQWACI	2.66 ± 0.15
MVPVFTGWRICVGGNCLARR	-0.162 ± 0.34
MVVEFCYVRYRAN	0.716 ± 0.6
MVVNVGK	-0.088 ± 0.17
MWFWTLCIF	8.025 ± 0.027
MWIHYKVFRCWTVRAEKVTG	4.29 ± 0.083
MWIYNY	2.78 ± 0.087
MWLASSDNYHNMALVCFCVL	inactive
MWVDQMVFKRPGYCRSGMYL	4.78 ± 0.049
MYDFLVKGRGVCVNLGNSTW	-1.21 ± 0.48
MYEFQPRLDHRLFRYICMNV	-0.018 ± 1.1
MYILMKDIRDFIFSSRPIIS	inactive
MYRISPCVLRGY	0.366 ± 0.34
MYSYFSRSMTHTNNGLSSLA	4.38 ± 0.045
MYTKVNF	-0.93 ± 0.76
MYTLYS	inactive
MYTVGWHSTQCFLEDFGRTL	3.13 ± 0.075
NACILNSM	inactive
NADHDLSEILVNRRTGWFHF	5.836 ± 0.041

Substance	amyloid nucleation score
NALSIQVGSCPRSLISSVGP	0.228 ± 1
NASLYVSYGM	1.5 ± 0.39
NASVHPMFL	-0.24 ± 0.48
NATCPRHCRDHQGSYYRHCL	0.499 ± 0.28
NAVFVFSRWWYISNVVPQK	-1.48 ± 1.1
NAYFMLEILRTKWTQDSTER	-0.99 ± 0.78
NCCEMNVLYLSIRLLFHVTA	1.58 ± 0.097
NCFNLEKGQMCPDWNGSSYT	-0.667 ± 0.39
NCKWCNT	0.996 ± 0.29
NCTHPFDMTPNFFWSYGIVG	-0.656 ± 1.1
NCVTHFMFNLDWSLWFEVCF	-1.04 ± 1.1
NCWNLICLKSSFRR	9.054 ± 0.05
NCYGVVYSLCNMEVLSMWHE	7.723 ± 0.036
NDCSGKDVVILQQE	0.192 ± 1
NDKCKLVLIGLDFNELVQPS	-0.708 ± 1.1
NDLYDSINEA	-0.885 ± 0.38
NDSCELLCESITYTAWFSGQ	3.22 ± 0.12
NDTRSLLML	0.259 ± 0.24
NDWSHRSIFMMVCFWGVHSH	inactive
NEDLIEKSLFCLAYSLFPTS	-0.266 ± 0.62
NEHGGLVNYGVCISGATYLA	4.21 ± 0.097
NELKY	0.02 ± 0.56

Substance	amyloid nucleation score
NERQEIIPDSSPETHVSNIT	1.12 ± 0.12
NERYP	-0.865 ± 0.33
NESNYRVVRGKFKSEFRAEL	3.61 ± 0.13
NEYYAFFRLSADSASS	0.571 ± 0.51
NFAGLLY	inactive
NFCPLPLVRCIECLRTMDGV	inactive
NFEFFYRRNHT	inactive
NFFVFYIR	7.06 ± 0.072
NFLCVSDKGCDCVESKLG	8.145 ± 0.033
NFLMV	0.75 ± 0.47
NFNCAPFLVLYQQVGQAFSL	6.578 ± 0.06
NFPAWCV	0.495 ± 0.19
NFVIQ	0.011 ± 0.56
NFVKRV	-0.509 ± 0.48
NGGPHRPDSLVWYLEHKMRQ	inactive
NGSDRWQASHRTNWGMVGFG	0.597 ± 0.44
NGSRI	0.018 ± 0.31
NGTCLYAYIMIRLISNEFSR	-0.417 ± 0.42
NGVKGLKIMDSRSGVT	6.043 ± 0.046
NHHTEDMVK	0.367 ± 0.32
NHLGLTDCTFQGLDSG	-1.09 ± 1.1
